Target: thrombin (UniProt P00734;P00734 328-363;364-622)
Test: single-molecule TIRF, transient Cy3 probe binding to switch; LOD 20 pM (not a Kd); no specific signal without thrombin; 1x PBS with oxygen scavenger system, 20 nM Cy3 probe, 25 +/- 1 C; switch immobilised on PEG/biotin-PEG streptavidin glass

B1: thrombin-responsive three-way-junction molecular switch (B4 + G13 + CP1, probed by FP1) (structured_DNA)
DNA 1: TGGGATGGTTGGTGTGGTTGGCCGTACTCTATGAGCCTCTG
DNA 2: TCAGTGGGGTTGGACGGGATGGTGCCTGACCGTGT
DNA 3: TTTTTCAGAGGCTCATAGAGTACGG
DNA 4: AAACACGGATCCCATA
Does B1 bind?
Result: binds

From PMC7006622
